# Test results published in article PMC7294946.
# Biological target: PRMT1 (UniProt Q99873)
# Experiment: co-IP with Flag antibody, western blot
# Conditions: reference: Flag-RUNX1 wild type; sites T207
substance,measurement,value
RUNX1 (from UniProt Q01196) Flag-RUNX1 T207A,binding against the reference,weaker
